Data: patent US12344890B2, “Process for cognate nucleotide detection in a nucleic acid sequencing workflow” (priority 2017, dated 2025)

Legend:
[1] = target: T1, Therminator™ DNA polymerase (Thermococcus sp., UniProt Q56366, A485L/D141A/E143A); type: biochemical, Thermococcus species 9° N; details: incorporation assay, averaged from three trials
T1 construct: purchased New England BioLabs
Description: Each nucleotide included a fluorescent moiety constructed on a Cy-5 scaffold. […] In the case of the labeled dUTP analog, the comparison was against dTTP.

[2] = tested on: Nc1ccn([C@H]2C[C@H](O)[C@@H](COP(=O)(O)OP(=O)(O)OP(=O)(O)O)O2)c(=O)n1; assay: purified protein, by the assay type; details: other: incorporation assay, Therminator DNA polymerase; averaged from three trials
[3] = tested on: Nc1nc2c(ncn2[C@H]2C[C@H](O)[C@@H](COP(=O)(O)OP(=O)(O)OP(=O)(O)O)O2)c(=O)[nH]1; assay: purified protein, by the assay type; details: other: incorporation assay, Therminator DNA polymerase; averaged from three trials
[4] = tested on: Nc1ncnc2c1ncn2[C@H]1C[C@H](O)[C@@H](COP(=O)(O)OP(=O)(O)OP(=O)(O)O)O1; assay: purified protein, by the assay type; details: other: incorporation assay, Therminator DNA polymerase; averaged from three trials

T1 sequence (Q56366 whole entry D141A/E143A/A485L): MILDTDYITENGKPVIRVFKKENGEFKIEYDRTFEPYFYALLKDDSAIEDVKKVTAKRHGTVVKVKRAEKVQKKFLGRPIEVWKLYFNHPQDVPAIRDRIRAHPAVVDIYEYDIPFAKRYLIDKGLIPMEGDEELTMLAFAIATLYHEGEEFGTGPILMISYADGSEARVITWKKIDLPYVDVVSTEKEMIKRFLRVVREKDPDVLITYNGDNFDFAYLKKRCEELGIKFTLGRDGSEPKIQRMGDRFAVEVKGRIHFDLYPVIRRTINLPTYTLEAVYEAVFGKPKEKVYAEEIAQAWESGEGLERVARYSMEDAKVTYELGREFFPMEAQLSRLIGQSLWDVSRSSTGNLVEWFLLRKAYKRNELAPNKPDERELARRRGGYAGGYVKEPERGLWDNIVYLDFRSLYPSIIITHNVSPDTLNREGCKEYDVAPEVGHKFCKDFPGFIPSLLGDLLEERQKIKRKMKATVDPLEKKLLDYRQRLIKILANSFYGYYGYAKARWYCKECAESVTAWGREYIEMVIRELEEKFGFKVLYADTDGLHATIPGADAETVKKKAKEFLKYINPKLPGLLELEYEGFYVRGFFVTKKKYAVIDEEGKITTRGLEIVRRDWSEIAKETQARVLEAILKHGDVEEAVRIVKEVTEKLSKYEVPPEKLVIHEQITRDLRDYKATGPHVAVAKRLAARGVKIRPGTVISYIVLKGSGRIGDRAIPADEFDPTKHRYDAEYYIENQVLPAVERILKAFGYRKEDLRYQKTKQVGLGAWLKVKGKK

Compound `Cc1cn([C@H]2C[C@H](O)[C@@H](COP(=O)(O)OP(=O)(O)OP(=O)(O)O)O2)c(=O)[nH]c1=O` [dTTP, 2′-deoxythymidine-5′-triphosphate] has a Km [1] of 0.92 µM.

With “Therminator™ DNA polymerase (Thermococcus sp. 9oN-7; A485L/D141A/E143A)” the Km [2] was 0.82 µM, the Km [3] was 0.23 µM and the Km [4] was 0.05 µM.
